B1: HDV Ribozyme (parent)
chain: GGCCGGCAUGGUCCCAGCCUCCUCGCUGGCGCCGGCUGGGCAACAUUCCGAGGGGACCGUCCCCUCGGUAAUGGCGAAUGGGACCCA

Variants of: B1
Assay: self-cleavage, relative activity (ratio to wild type); higher = more cleavage; co-transcriptional

| Variant | self-cleavage |
| --- | --- |
| GGCCGGCAUGGUCCCAGCCUCCUCCCUGGCGCCGGCUGGGCAACAUUCCGAGGGGCCCGUCCCCUCGGUAAUGGCGAAUGGGACCCA | 0.115 |
| GGCCGGCAUGGUCCCAGCCUCCUCCCUGGCGCCGGCUGGGCAACAUUCCGAGGGGUCCGUCCCCUCGGUAAUGGCGAAUGGGACCCA | 0.178 |
| GGCCGGCAUGGUCCCAGCCUCCUCCCUGGCGCCGGCUGGGCAACAUUCCGAGGGGGCCGUCCCCUCGGUAAUGGCGAAUGGGACCCA | 0.161 |
| GGCCGGCAUGGUCCCAGCCUCCUCACUGGCGCCGGCUGGGCAACAUUCCGAGGGGACCGUCCCCUCGGUAAGGGCGAAUGGGACCCA | 0.104 |
| GGCCGGCAUGGUCCCAGCCUCCUCCCUGGCGCCUGCUGGGCAACAUUCCGAGGGGACCGUCCCCUCGGUAAUGGCGAAUGGGACCCA | 0 |
| GGCCGGCAUGGUCCCAGCCUCCUCCCUGGCGCCCGCUGGGCAACAUUCCGAGGGGACCGUCCCCUCGGUAAUGGCGAAUGGGACCCA | 0.0426 |
| GGCCGGCAUGGUCCCAGCCUCCUCCCUGGCGCCGGCUGGGAAACAUUCCGAGGGGACCGUCCCCUCGGUAAUGGCGAAUGGGACCCA | 0.0898 |
| GGCCGGCAUGGUCCCAGCCUCCUCCCUGGCGCCGGCUGGGUAACAUUCCGAGGGGACCGUCCCCUCGGUAAUGGCGAAUGGGACCCA | 0.0707 |
| GGCCGGCAUGGUCCCAGCCUCCUCCCUGGCGCCGGCUGGGCAACAUUCCGAGGGGACCGUCCCAUCGGUAAUGGCGAAUGGGACCCA | 0.203 |
| GGCCGGCAUGGUCCCAGCCUCCUCCCUGGCGCCGGCUGGGCAACAUUCCGAGGGGACCGUCCCUUCGGUAAUGGCGAAUGGGACCCA | 0.0369 |
| GGCCGGCAUGGUCCCAGCCUCCUCCCUGGCGCCGGCUGGGCAACAUUCCGACGGGACCGUCCCCUCGGUAAUGGCGAAUGGGACCCA | 0.166 |
| GGCCGGCAUGGUCCCAGCCUCCUCCCUGGCGCCGGCUGGGCAACAUUCCGGGGGGACCGUCCCCUCGGUAAUGGCGAAUGGGACCCA | 0.237 |
| GGCCGGCAUGGUCCCAGCCUCCUCCCUGGCGCCGGCUGGGCGACAUUCCGAGGGGACCGUCCCCUCGGUAAUGGCGAAUGGGACCCA | 0 |
| GGCCGGCAUGGUCCCAGCCUCCUCCCUGGCGCCGGCUGGGCUACAUUCCGAGGGGACCGUCCCCUCGGUAAUGGCGAAUGGGACCCA | 0 |
| GGCCGGCAUGGUCCCAGCCUCCUCCCUGGCGCCGGCUGGGCCACAUUCCGAGGGGACCGUCCCCUCGGUAAUGGCGAAUGGGACCCA | 0.128 |
| GGCCGGCAUGGUCCCAGCCUCCUCCCUGGCGCCGGCUGGGCAACAUUCCGAGGGGACCGUCCCCUCGGUAAUGGCGACUGGGACCCA | 0.0773 |

| Variant | self-cleavage |
| --- | --- |
| GGCCGGCAUGGUCCCAGCCUCCUCCCUGGCCCCGGCUGGGCAACAUUCCGAGGGGACCGUCCCCUCGGUAAUGGCGAAUGGGACCCA | 0.0978 |
| GGCCGGCAUGGUCCCAGCCUCCUCCCUGGCGCCGGCUGGGCAACAUUCCGAGGGGAUCGUCCCCUCGGUAAUGGCGAAUGGGACCCA | 0.219 |
| GGCCGGCAUGGUCCCAGCCUCCUCCCUGGCGUCGGCUGGGCAACAUUCCGAGGGGACCGUCCCCUCGGUAAUGGCGAAUGGGACCCA | 0.0755 |
| GGCCGGCAUGGUCCCAGCCUCCUCCCUGGCGGCGGCUGGGCAACAUUCCGAGGGGACCGUCCCCUCGGUAAUGGCGAAUGGGACCCA | 0.104 |
| GGCCGGCAUGGUCCCAGCCUCCUCCCUGGCGCCGGCUGGGCAACAUUCCGAGGGGACCGUCCCCUCGGUAAUGGCGAAUGGGAACCA | 0.0489 |
| GGCCGGCAUGGUCCCAGCCUCCUCCCUGGCGCCGGCUGGGCAACAUUCCGAGGGGACCGUCCCCUCGGUAAUGGCGAAUGGGACCCA | 0.0909 |
| GGCCGGCAUGGUCCCAGCCUCCUCCCUGGCGCCGGCUGGGCAAUAUUCCGAGGGGACCGUCCCCUCGGUAAUGGCGAAUGGGACCCA | 0.259 |
| GGCCGGCAUGGUCCCAGCCUCCUCCCUGGCGCCGGCUAGGCAACAUUCCGAGGGGACCGUCCCCUCGGUAAUGGCGAAUGGGACCCA | 0.259 |
| GGCCGGCAUGGUCCCAGCCUCCUCCCUGGCGCCGCCUGGGCAACAUUCCGAGGGGACCGUCCCCUCGGUAAUGGCGAAUGGGACCCA | 0.115 |
| GGCCGGCAUGGUCCCAGCCUCCUCCCUGGCGCCGGCUGGGCAACUUUCCGAGGGGACCGUCCCCUCGGUAAUGGCGAAUGGGACCCA | 0.128 |
| GGCCGGCAUGGUCCCAGCCUCCUCCCUGGCGCCGGCUGGGCAACCUUCCGAGGGGACCGUCCCCUCGGUAAUGGCGAAUGGGACCCA | 0.0875 |
| GGCCGGCAUGGUCCCAGCCUCCUCACUGGCGCCGGCUGGGCAACAUUCCGAGGGGACCGUCCCCUCGGUAAUGGCGAAGGGGACCCA | 0 |
| GGCCGGCAUGGUCCCAGCCUCCUCCCUAGCGCCGGCUGGGCAACAUUCCGAGGGGACCGUCCCCUCGGUAAUGGCGAAUGGGACCCA | 0.0297 |
| GGCCGGCAUGGUCCCAGCCUCCUCCUUGGCGCCGGCUGGGCAACAUUCCGAGGGGACCGUCCCCUCGGUAAUGGCGAAUGGGACCCA | 0 |
| GGCCGGCAUGGUCCCAGCCUCCUCCCUGGCGCCGGCUGGGCAACAUUCCGAGGGGACCGUCCCCUCGGUACUGGCGAAUGGGACCCA | 0.0475 |
| GGCCGGCAUGGUCCCAGCCUCCUCCCUGGCGCCGGCUGGGCAACAUUCCGAGGGGACCGUCCCCUCGGUAUUGGCGAAUGGGACCCA | 0.19 |

From the RNAGym collection of RNA variant scans (doi:10.7554/elife.80360)
